± gives the standard deviation of the averaged measurements.
Tests used:
MCF7 = assay: percentage of EdU-negative (G0-arrested) nuclei per well, 72 h; higher = more G0 arrest; details: reference: sequence is the full UniProt precursor, the tested protein was the secreted form or ectodomain
hTERT-HMEC = assay: as above; details: reference: sequence is the full UniProt precursor, the tested protein was the secreted form or ectodomain
[1] = protein concentration 0.0237143 µM
[2] = protein concentration 0.237143 µM
[3] = protein concentration 0.0085 µM
[4] = protein concentration 0.0111429 µM
[5] = protein concentration 0.111429 µM
[6] = protein concentration 0.00828571 µM
[7] = protein concentration 0.0828571 µM
[8] = protein concentration 0.01525 µM
[9] = protein concentration 0.1525 µM
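Further: secreted proteins added to cultured cells, EdU pulse at the end, nuclei found by Hoechst imaging, EdU status from nuclear versus surrounding ring intensity ratio, PBS as neutral control.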

“MVWRVPPFLLPILFLASHVGAAVDLTLLANLRLTDPQRFFLTCVSGEAGAGRGSDAWGPPLLLEKDDRIVRTPPGPPLRLARNGSHQVTLRGFSKPSDLVGVFSCVGGAGARRTRVIYVHNSPGAHLLPDKVTHTVNKGDTAVLSARVHKEKQTDVIWKSNGSYFYTLDWHEAQDGRFLLQLPNVQPPSSGIYSATYLEASPLGSAFFRLIVRGCGAGRWGPGCTKECPGCLHGGVCHDHDGECVCPPGFTGTRCEQACREGRFGQSCQEQCPGISGCRGLTFCLPDPYGCSCGSGWRGSQCQEACAPGHFGADCRLQCQCQNGGTCDRFSGCVCPSGWHGVHCEKSDRIPQILNMASELEFNLETMPRINCAAAGNPFPVRGSIELRKPDGTVLLSTKAIVEPEKTTAEFEVPRLVLADSGFWECRVSTSGGQDSRRFKVNVKVPPVPLAAPRLLTKQSRQLVVSPLVSFSGDGPISTVRLHYRPQDSTMDWSTIVVDPSENVTLMNLRPKTGYSVRVQLSRPGEGGEGAWGPPTLMTTDCPEPLLQPWLEGWHVEGTDRLRVSWSLPLVPGPLVGDGFLLRLWDGTRGQERRENVSSPQARTALLTGLTPGTHYQLDVQLYHCTLLGPASPPAHVLLPPSGPPAPRHLHAQALSDSEIQLTWKHPEALPGPISKYVVEVQVAGGAGDPLWIDVDRPEETSTIIRGLNASTRYLFRMRASIQGLGDWSNTVEESTLGNGLQAEGPVQESRAAEEGLDQQLILAVVGSVSATCLTILAALLTLVCIRRSCLHRRRTFTYQSGSGEETILQFSSGTLTLTRRPKLQPEPLSYPVLEWEDITFEDLIGEGNFGQVIRAMIKKDGLKMNAAIKMLKEYASENDHRDFAGELEVLCKLGHHPNIINLLGACKNRGYLYIAIEYAPYGNLLDFLRKSRVLETDPAFAREHGTASTLSSRQLLRFASDAANGMQYLSEKQFIHRDLAARNVLVGENLASKIADFGLSRGEEVYVKKTMGRLPVRWMAIESLNYSVYTTKSDVWSFGVLLWEIVSLGGTPYCGMTCAELYEKLPQGYRMEQPRNCDDEVYELMRQCWRDRPYERPPFAQIALQLGRMLEARKAYVNMSLFENFTYAGIDATAEEA” was tested, and the “percentage of EdU-negative” value (MCF7; [1]) was 23.1 ± 1.1%, the “percentage of EdU-negative” value (MCF7; [2]) was 26.39 ± 0.034% and the “percentage of EdU-negative” value (hTERT-HMEC; [1]) was 5.57 ± 1.2%. For the same sequence, the “percentage of EdU-negative” value (hTERT-HMEC; [2]) was 5.36 ± 0.036%.

In the case of “MWAGLLLRAACVALLLPGAPARGYTGRKPPGHFAAERRRLGPHVCLSGFGSGCCPGWAPSMGGGHCTLPLCSFGCGSGICIAPNVCSCQDGEQGATCPETHGPCGEYGCDLTCNHGGCQEVARVCPVGFSMTETAVGIRCTDIDECVTSSCEGHCVNTEGGFVCECGPGMQLSADRHSCQDTDECLGTPCQQRCKNSIGSYKCSCRTGFHLHGNRHSCVDVNECRRPLERRVCHHSCHNTVGSFLCTCRPGFRLRADRVSCEAFPKAVLAPSAILQPRQHPSKMLLLLPEAGRPALSPGHSPPSGAPGPPAGVRTTRLPSPTPRLPTSSPSAPVWLLSTLLATPVPTASLLGNLRPPSLLQGEVMGTPSSPRGPESPRLAAGPSPCWHLGAMHESRSRWTEPGCSQCWCEDGKVTCEKVRCEAACSHPIPSRDGGCCPSCTGCFHSGVVRAEGDVFSPPNENCTVCVCLAGNVSCISPECPSGPCQTPPQTDCCTCVPVRCYFHGRWYADGAVFSGGGDECTTCVCQNGEVECSFMPCPELACPREEWRLGPGQCCFTCQEPTPSTGCSLDDNGVEFPIGQIWSPGDPCELCICQADGSVSCKRTDCVDSCPHPIRIPGQCCPDCSAGCTYTGRIFYNNETFPSVLDPCLSCICLLGSVACSPVDCPITCTYPFHPDGECCPVCRDCNYEGRKVANGQVFTLDDEPCTRCTCQLGEVSCEKVPCQRACADPALLPGDCCSSCPDSLSPLEEKQGLSPHGNVAFSKAGRSLHGDTEAPVNCSSCPGPPTASPSRPVLHLLQLLLRTNLMKTQTLPTSPAGAHGPHSLALGLTATFPGEPGASPRLSPGPSTPPGAPTLPLASPGAPQPPPVTPERSFSASGAQIVSRWPPLPGTLLTEASALSMMDPSPSKTPITLLGPRVLSPTTSRLSTALAATTHPGPQQPPVGASRGEESTM [Q96DN2]”, the “percentage of EdU-negative” value (MCF7; [3]) is reported as 25.5 ± 1.1%, the “percentage of EdU-negative” value (MCF7; protein concentration 0.085 µM) is reported as 26.4 ± 1.8% and the “percentage of EdU-negative” value (hTERT-HMEC; [3]) is reported as 4.9939 ± 0.0014%. For the same sequence, the “percentage of EdU-negative” value (hTERT-HMEC; protein concentration 0.085 µM) was 5.36 ± 0.4%.

“MWAPRCRRFWSRWEQVAALLLLLLLLGVPPRSLALPPIRYSHAGICPNDMNPNLWVDAQSTCRRECETDQECETYEKCCPNVCGTKSCVAARYMDVKGKKGPVGMPKEATCDHFMCLQQGSECDIWDGQPVCKCKDRCEKEPSFTCASDGLTYYNRCYMDAEACSKGITLAVVTCRYHFTWPNTSPPPPETTMHPTTASPETPELDMAAPALLNNPVHQSVTMGETVSFLCDVVGRPRPEITWEKQLEDRENVVMRPNHVRGNVVVTNIAQLVIYNAQLQDAGIYTCTARNVAGVLRADFPLSVVRGHQAAATSESSPNGTAFPAAECLKPPDSEDCGEEQTRWHFDAQANNCLTFTFGHCHRNLNHFETYEACMLACMSGPLAACSLPALQGPCKAYAPRWAYNSQTGQCQSFVYGGCEGNGNNFESREACEESCPFPRGNQRCRACKPRQKLVTSFCRSDFVILGRVSELTEEPDSGRALVTVDEVLKDEKMGLKFLGQEPLEVTLLHVDWACPCPNVTVSEMPLIIMGEVDGGMAMLRPDSFVGASSARRVRKLREVMHKKTCDVLKEFLGLH [Q8TEU8]” was tested, and the “percentage of EdU-negative” value (MCF7; [4]) was 25.8 ± 3%, the “percentage of EdU-negative” value (MCF7; [5]) was 28.02 ± 0.15% and the “percentage of EdU-negative” value (hTERT-HMEC; [4]) was 5.48 ± 1.1%. For the same sequence, the “percentage of EdU-negative” value (hTERT-HMEC; [5]) was 6.03 ± 0.2%.

With “MWAQLLLGMLALSPAIAEELPNYLVTLPARLNFPSVQKVCLDLSPGYSDVKFTVTLETKDKTQKLLEYSGLKKRHLHCISFLVPPPAGGTEEVATIRVSGVGNNISFEEKKKVLIQRQGNGTFVQTDKPLYTPGQQVYFRIVTMDSNFVPVNDKYSMVELQDPNSNRIAQWLEVVPEQGIVDLSFQLAPEAMLGTYTVAVAEGKTFGTFSVEEYVLPKFKVEVVEPKELSTVQESFLVKICCRYTYGKPMLGAVQVSVCQKANTYWYREVEREQLPDKCRNLSGQTDKTGCFSAPVDMATFDLIGYAYSHQINIVATVVEEGTGVEANATQNIYISPQMGSMTFEDTSNFYHPNFPFSGKIRVRGHDDSFLKNHLVFLVIYGTNGTFNQTLVTDNNGLAPFTLETSGWNGTDVSLEGKFQMEDLVYNPEQVPRYYQNAYLHLRPFYSTTRSFLGIHRLNGPLKCGQPQEVLVDYYIDPADASPDQEISFSYYLIGKGSLVMEGQKHLNSKKKGLKASFSLSLTFTSRLAPDPSLVIYAIFPSGGVVADKIQFSVEMCFDNQVSLGFSPSQQLPGAEVELQLQAAPGSLCALRAVDESVLLLRPDRELSNRSVYGMFPFWYGHYPYQVAEYDQCPVSGPWDFPQPLIDPMPQGHSSQRSIIWRPSFSEGTDLFSFFRDVGLKILSNAKIKKPVDCSHRSPEYSTAMGAGGGHPEAFESSTPLHQAEDSQVRQYFPETWLWDLFPIGNSGKEAVHVTVPDAITEWKAMSFCTSQSRGFGLSPTVGLTAFKPFFVDLTLPYSVVRGESFRLTATIFNYLKDCIRVQTDLAKSHEYQLESWADSQTSSCLCADDAKTHHWNITAVKLGHINFTISTKILDSNEPCGGQKGFVPQKGRSDTLIKPVLVKPEGVLVEKTHSSLLCPKGKVASESVSLELPVDIVPDSTKAYVTVLGDIMGTALQNLDGLVQMPSGCGEQNMVLFAPIIYVLQYLEKAGLLTEEIRSRAVGFLEIGYQKELMYKHSNGSYSAFGERDGNGNTWLTAFVTKCFGQAQKFIFIDPKNIQDALKWMAGNQLPSGCYANVGNLLHTAMKGGVDDEVSLTAYVTAALLEMGKDVDDPMVSQGLRCLKNSATSTTNLYTQALLAYIFSLAGEMDIRNILLKQLDQQAIISGESIYWSQKPTPSSNASPWSEPAAVDVELTAYALLAQLTKPSLTQKEIAKATSIVAWLAKQHNAYGGFSSTQDTVVALQALAKYATTAYMPSEEINLVVKSTENFQRTFNIQSVNRLVFQQDTLPNVPGMYTLEASGQGCVYVQTVLRYNILPPTNMKTFSLSVEIGKARCEQPTSPRSLTLTIHTSYVGSRSSSNMAIVEVKMLSGFSPMEGTNQLLLQQPLVKKVEFGTDTLNIYLDELIKNTQTYTFTISQSVLVTNLKPATIKVYDYYLPDEQATIQYSDPCE [A8K2U0]” the “percentage of EdU-negative” value (MCF7; [6]) was 23.3 ± 1.1%, the “percentage of EdU-negative” value (MCF7; [7]) was 29.5 ± 1.8% and the “percentage of EdU-negative” value (hTERT-HMEC; [6]) was 5.09 ± 0.24%. For the same sequence, the “percentage of EdU-negative” value (hTERT-HMEC; [7]) was 5.43 ± 0.39%.

With “MWATLPLLCAGAWLLGVPVCGAAELCVNSLEKFHFKSWMSKHRKTYSTEEYHHRLQTFASNWRKINAHNNGNHTFKMALNQFSDMSFAEIKHKYLWSEPQNCSATKSNYLRGTGPYPPSVDWRKKGNFVSPVKNQGACGSCWTFSTTGALESAIAIATGKMLSLAEQQLVDCAQDFNNHGCQGGLPSQAFEYILYNKGIMGEDTYPYQGKDGYCKFQPGKAIGFVKDVANITIYDEEAMVEAVALYNPVSFAFEVTQDFMMYRTGIYSSTSCHKTPDKVNHAVLAVGYGEKNGIPYWIVKNSWGPQWGMNGYFLIERGKNMCGLAACASYPIPLV” the “percentage of EdU-negative” value (MCF7; [8]) was 27 ± 2.4%, the “percentage of EdU-negative” value (MCF7; [9]) was 29.3 ± 4.1% and the “percentage of EdU-negative” value (hTERT-HMEC; [8]) was 5.31 ± 0.13%. For the same sequence, the “percentage of EdU-negative” value (hTERT-HMEC; [9]) was 8.87 ± 0.59%.
